Experimental data taken from patent US12528864 (GlaxoSmithKline, dated 2026).
Like-named read-outs stand apart in the source and are kept apart here.

Tests used:
[1] = molecular target: T1, cynomolgus monkey CD96v2 expressed on cells (CHO cells; transiently transfected HEK cells) (cynomolgus monkey, UniProt A0A2K5TWV6 22-569); test: flow cytometry on transiently transfected HEK cells (Cyno CD96v2)
T1 construct: the cell is named under assay; also called CHO-cyCD96; Cyno CD96v2
T1 sequence: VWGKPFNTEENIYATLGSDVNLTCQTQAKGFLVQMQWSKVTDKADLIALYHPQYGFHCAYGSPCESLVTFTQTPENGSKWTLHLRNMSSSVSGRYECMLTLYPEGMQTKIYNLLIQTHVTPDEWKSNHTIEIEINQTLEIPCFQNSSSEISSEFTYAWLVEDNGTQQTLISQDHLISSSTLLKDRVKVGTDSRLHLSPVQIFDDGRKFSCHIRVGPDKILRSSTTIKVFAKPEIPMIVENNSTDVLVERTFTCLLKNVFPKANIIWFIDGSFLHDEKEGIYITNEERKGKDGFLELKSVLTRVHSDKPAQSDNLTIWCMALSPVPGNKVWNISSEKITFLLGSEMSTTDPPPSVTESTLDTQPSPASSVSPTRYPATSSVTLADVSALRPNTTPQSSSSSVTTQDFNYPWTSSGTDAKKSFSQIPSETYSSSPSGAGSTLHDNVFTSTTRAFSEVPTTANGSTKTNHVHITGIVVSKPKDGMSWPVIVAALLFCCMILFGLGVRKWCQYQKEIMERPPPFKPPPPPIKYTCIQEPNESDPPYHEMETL

[2] = molecular target: T2, human CD96v1 on transiently transfected HEK cells (human, UniProt P40200 22-585); test: flow cytometry on transiently transfected HEK cells (Human CD96v1)
T2 construct: whole, on cells
T2 sequence (looked up): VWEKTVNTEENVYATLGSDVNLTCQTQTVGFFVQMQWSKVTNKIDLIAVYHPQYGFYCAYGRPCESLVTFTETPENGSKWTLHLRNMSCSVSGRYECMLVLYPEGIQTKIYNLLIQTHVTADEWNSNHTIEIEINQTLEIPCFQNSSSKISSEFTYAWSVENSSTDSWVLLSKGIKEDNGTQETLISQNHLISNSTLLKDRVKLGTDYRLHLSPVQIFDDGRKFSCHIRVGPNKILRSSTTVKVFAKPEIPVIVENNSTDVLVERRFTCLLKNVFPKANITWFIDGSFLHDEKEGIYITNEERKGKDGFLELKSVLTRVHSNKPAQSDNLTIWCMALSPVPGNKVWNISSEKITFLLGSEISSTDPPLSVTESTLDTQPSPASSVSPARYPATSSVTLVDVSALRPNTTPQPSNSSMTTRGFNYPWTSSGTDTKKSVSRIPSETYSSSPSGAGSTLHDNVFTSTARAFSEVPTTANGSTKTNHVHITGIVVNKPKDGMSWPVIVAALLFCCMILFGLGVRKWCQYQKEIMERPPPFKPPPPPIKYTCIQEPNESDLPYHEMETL

[3] = molecular target: T3, blood derived cynomolgus monkey CD96v2 on transiently transfected HEK cells (cynomolgus monkey); test: flow cytometry on transiently transfected HEK cells; lower end of range, n = 3
T3 construct: also called Blood derived Cyno CD96v2

[4] = molecular target: T1, cynomolgus monkey CD96v2 expressed on …; test: as above
[5] = molecular target: T1, cynomolgus monkey CD96v2 expressed on …; test: flow cytometry on transiently transfected HEK cells (Cyno CD96v2); remark: listed apart in the source
[6] = molecular target: T2, human CD96v1 on transiently transfected …; test: flow cytometry on transiently transfected HEK cells (Human CD96v1); remark: listed apart in the source
[7] = molecular target: T4, cynomolgus monkey CD96, native, on primary cynomolgus monkey T cells (cynomolgus monkey, UniProt A0A2K5TWV6 22-569); test: flow cytometry on activated cynomolgus monkey T cells, donor 2
T4 construct: whole, on cells
T4 sequence: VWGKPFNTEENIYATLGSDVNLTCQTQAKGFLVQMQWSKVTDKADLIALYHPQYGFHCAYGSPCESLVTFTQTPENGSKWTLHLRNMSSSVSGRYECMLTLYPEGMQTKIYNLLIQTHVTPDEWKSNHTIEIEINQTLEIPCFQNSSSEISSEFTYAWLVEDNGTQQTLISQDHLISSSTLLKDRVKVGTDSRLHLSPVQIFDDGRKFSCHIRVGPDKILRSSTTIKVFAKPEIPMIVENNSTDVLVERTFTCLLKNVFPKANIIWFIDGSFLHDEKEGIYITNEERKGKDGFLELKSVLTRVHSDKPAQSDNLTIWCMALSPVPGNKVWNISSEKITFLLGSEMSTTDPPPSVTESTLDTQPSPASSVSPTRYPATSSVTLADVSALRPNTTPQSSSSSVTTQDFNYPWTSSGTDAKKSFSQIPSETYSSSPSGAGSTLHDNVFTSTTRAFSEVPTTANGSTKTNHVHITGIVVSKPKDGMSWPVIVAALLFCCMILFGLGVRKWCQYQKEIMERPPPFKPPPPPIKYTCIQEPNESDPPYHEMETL

[8] = molecular target: T3, blood derived cynomolgus monkey CD96v2 …; test: flow cytometry on transiently transfected HEK cells (Cyno blood derived CD96v2)
[9] = molecular target: T1, cynomolgus monkey CD96v2 expressed on …; test: flow cytometry on transiently transfected HEK cells (Cyno CD96v2); remark: listed apart in the source
recombinant human CD155 = molecular target: T5, recombinant human CD155 (human, UniProt P15151 21-343); test: surface plasmon resonance (SPR)
T5 sequence: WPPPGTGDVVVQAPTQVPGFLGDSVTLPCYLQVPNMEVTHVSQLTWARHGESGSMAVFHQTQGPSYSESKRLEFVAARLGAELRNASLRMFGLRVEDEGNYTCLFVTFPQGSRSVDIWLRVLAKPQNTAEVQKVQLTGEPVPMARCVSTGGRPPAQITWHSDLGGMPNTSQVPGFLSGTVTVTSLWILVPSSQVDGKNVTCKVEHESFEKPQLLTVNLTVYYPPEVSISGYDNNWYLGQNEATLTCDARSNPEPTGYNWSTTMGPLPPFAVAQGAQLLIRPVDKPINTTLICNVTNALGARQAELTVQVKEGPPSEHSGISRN

recombinant human TIGIT = molecular target: T6, recombinant human TIGIT (human, UniProt Q495A1 22-141); test: surface plasmon resonance (SPR)
T6 sequence (looked up): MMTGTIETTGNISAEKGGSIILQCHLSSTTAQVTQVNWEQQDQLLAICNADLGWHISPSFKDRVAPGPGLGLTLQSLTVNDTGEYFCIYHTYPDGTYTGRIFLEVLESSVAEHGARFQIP

[10] = molecular target: T7, recombinant human nectin-1 (human, UniProt Q15223 31-334, limits assumed); test: surface plasmon resonance (SPR)
T7 sequence (looked up): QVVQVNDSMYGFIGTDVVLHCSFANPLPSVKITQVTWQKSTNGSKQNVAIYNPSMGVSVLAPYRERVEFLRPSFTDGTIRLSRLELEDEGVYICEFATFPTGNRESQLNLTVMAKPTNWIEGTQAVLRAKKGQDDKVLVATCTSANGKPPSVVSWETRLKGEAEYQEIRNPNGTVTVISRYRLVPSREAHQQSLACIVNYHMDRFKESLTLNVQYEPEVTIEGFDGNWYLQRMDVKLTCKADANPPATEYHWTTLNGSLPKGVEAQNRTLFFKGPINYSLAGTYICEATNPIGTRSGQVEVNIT

EC50 (read off the curve) [1]: ~10 nM
EC50 (read off the curve) [2]: ~6 nM
EC50 [3]: 5.27 nM
EC50 [4]: 5.54 nM
EC50 (read off the curve) [5]: ~6 nM
EC50 (read off the curve) [6]: ~7 nM
EC50 (read off the curve) [7]: ~0.1 nM
EC50 (read off the curve) [8]: ~5 nM
EC50 (read off the curve) [9]: ~6 nM
binding result (recombinant human CD155): no binding
binding result (recombinant human TIGIT): no binding
binding result [10]: no binding
B1: 42Y073-86F08-66 (antibody)
heavy: not shown
light: DIQLTQSPSSLSASVGDRVTITCRASQSISSYLNWYQQKPGKAPKLLIYAASSLQSGVPSRFSGSGSGTDFTLTISSLQPEDFATYYCQQVLHTITFGGGTKVEIKRTVAAPSVFIFPPSDEQLKSGTASVVCLLNNFYPREAKVQWKVDNALQSGNSQESVTEQDSKDSTYSLSSTLTLSKADYEKHKVYACEVTHQGLSSPVTKSFNRGEC
notes: also called GSK 6097608; GSK6097608
